{"source": "paper PMC10844294", "molecular_target": "17T2 mAb de-glycosylated with PNGase F (human)", "sequence (heavy, as listed by the source, chain 1 of 2)": "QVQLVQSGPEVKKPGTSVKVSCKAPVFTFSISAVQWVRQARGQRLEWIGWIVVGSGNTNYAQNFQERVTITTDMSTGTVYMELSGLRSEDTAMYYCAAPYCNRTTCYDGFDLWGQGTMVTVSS", "sequence (light, as listed by the source, chain 2 of 2)": "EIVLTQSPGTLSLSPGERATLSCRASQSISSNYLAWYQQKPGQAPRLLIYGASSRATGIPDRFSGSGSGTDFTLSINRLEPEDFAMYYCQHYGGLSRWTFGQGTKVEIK", "assay": "SPR", "data": [{"substance": "SARS-CoV-2 spike receptor binding domain, ancestral WH1 (from UniProt P0DTC2 319-541) (domain or fragment)", "values": [{"measurement": "Kd", "result": 0.0749, "unit": "nM"}, {"measurement": "koff", "result": 0.00013, "unit": "s⁻¹"}, {"measurement": "kon", "result": "1.74e+06", "unit": "M⁻¹ s⁻¹"}]}]}
